# Assay results reported in US10072252B2 (priority 2013, dated 2018).
# Values joined by “and” are separate entries in the source; they are usually repeats but may differ in a detail not shown here. Equal entries are not always repeated.
# T1: Sulfolobus solfataricus SsoPox variant αsA1 (C258L/I261F/W263A), SEQ ID NO: 21 (Saccharolobus solfataricus, UniProt Q97VT7, C258L/I261F/W263A)
# T1 construct: made in house; host or cells: E. coli BL21(DE3)-pGro7/GroEL
# T1 sequence (Q97VT7 1-314 C258L/I261F/W263A): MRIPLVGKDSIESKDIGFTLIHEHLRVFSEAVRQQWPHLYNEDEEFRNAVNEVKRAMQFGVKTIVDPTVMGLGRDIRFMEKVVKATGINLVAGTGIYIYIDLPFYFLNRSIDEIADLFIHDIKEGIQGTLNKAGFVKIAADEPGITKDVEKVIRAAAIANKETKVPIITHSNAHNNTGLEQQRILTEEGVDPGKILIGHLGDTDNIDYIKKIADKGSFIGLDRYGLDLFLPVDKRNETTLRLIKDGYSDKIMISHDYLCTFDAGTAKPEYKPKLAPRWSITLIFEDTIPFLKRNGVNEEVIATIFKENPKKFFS
# Tests used:
# [1] = tested on: CCCCCCCC(=O)CC(=O)N[C@H]1CCOC1=O; assay: purified protein, by the assay type; settings: pH 8.3; 25.0 °C
# [2] = tested on: CCCCCCCCCC(=O)CC(=O)N[C@H]1CCOC1=O; assay: purified protein, by the assay type; settings: pH 8.3; 25.0 °C
# CCCCCCC1CCCC(=O)O1 = assay: purified protein, by the assay type; settings: pH 8.3; 25.0 °C
# [3] = target: T1, Sulfolobus solfataricus SsoPox variant αsA1 (C258L/I261F/W263A), SEQ ID NO: 21; assay type: biochemical; settings: for Catalytic activity: pH 8
# [4] = target: T2, Sulfolobus solfataricus SsoPox variant W263M, SEQ ID NO: 9 (Saccharolobus solfataricus, UniProt Q97VT7, W263M); assay type: biochemical
# T2 construct: made in house; host or cells: E. coli BL21(DE3)-pGro7/GroEL
# [5] = target: T3, Sulfolobus solfataricus SsoPox variant W263L, SEQ ID NO: 11 (Saccharolobus solfataricus, UniProt Q97VT7, W263L); assay type: biochemical
# T3 construct: made in house; host or cells: E. coli BL21(DE3)-pGro7/GroEL
# [6] = target: T4, Sulfolobus solfataricus SsoPox, wild type (wt), SEQ ID NO: 3 (Saccharolobus solfataricus, UniProt Q97VT7)
# [7] = target: Sulfolobus solfataricus SsoPox variant W263F (of SEQ ID NO: 3) (Saccharolobus solfataricus, UniProt Q97VT7, W263F)
# [8] = target: Sulfolobus solfataricus SsoPox variant W263I, SEQ ID NO: 15 (Saccharolobus solfataricus, UniProt Q97VT7, W263I)
# [9] = target: Sulfolobus solfataricus SsoPox variant W263V, SEQ ID NO: 17 (Saccharolobus solfataricus, UniProt Q97VT7, W263V)
# [10] = target: Sulfolobus solfataricus SsoPox variant W263T, SEQ ID NO: 19 (Saccharolobus solfataricus, UniProt Q97VT7, W263T)
# [11] = target: T3, Sulfolobus solfataricus SsoPox variant W263L, SEQ ID NO: 11; assay type: biochemical; remark: listed apart in the source
# [12] = target: T4, Sulfolobus solfataricus SsoPox, wild type (wt), SEQ ID NO: 3; set-up: made in house; host or cells: E. coli BL21(DE3)-pGro7/GroEL; settings: pH 8; cited from earlier work
# [13] = assay type: physicochemical; settings: pH 8
molecule,measurement,setting,value
"Sulfolobus solfataricus SsoPox variant W263I, SEQ ID NO: 15 (Saccharolobus solfataricus P2; W263I)",Km,[1],1605 ± 443 µM
same,kcat,[1],0.6 ± 0.09 s⁻¹
same,kcat/Km,[1],374 ± 117 M⁻¹ s⁻¹
same,Km,[2],17.8 ± 4.87 µM and 17.8 ± 4.9 µM
same,kcat,[2],2.89 s⁻¹ and 2.89 ± 0.08 s⁻¹
"Sulfolobus solfataricus SsoPox variant W263V, SEQ ID NO: 17 (Saccharolobus solfataricus P2; W263V)",Km,[1],1346 ± 298 µM
same,kcat,[1],0.19 ± 0.009 s⁻¹
same,kcat/Km,[1],141 ± 32 M⁻¹ s⁻¹
same,Km,[2],24.7 ± 5.2 µM
same,kcat,[2],4.82 ± 0.11 s⁻¹
same,kcat/Km,[2],195000 ± 44000 M⁻¹ s⁻¹
"Sulfolobus solfataricus SsoPox, wild type (wt), SEQ ID NO: 3 (Saccharolobus solfataricus P2)",Km,CCCCCCC1CCCC(=O)O1,94 ± 18 µM
same,kcat,CCCCCCC1CCCC(=O)O1,7.38 ± 0.28 s⁻¹
same,kcat/Km,CCCCCCC1CCCC(=O)O1,78600 ± 15300 M⁻¹ s⁻¹
same,Km,[1],143 ± 15 µM
same,kcat,[1],4.52 ± 0.1 s⁻¹
same,kcat/Km,[1],31600 ± 4000 M⁻¹ s⁻¹
same,Km,[2],335 ± 10.4 µM and 456 ± 128 µM
"CCOP(=S)(OCC)Oc1ccc([N+](=O)[O-])cc1 [Ethyl-Parathion, ethyl-parathion]",Catalytic activity (very low hydrolysis),[3],VLH
"CCCCCCC1CCCC(=O)O1 (stereo not drawn) [Undecanoic-δ-lactone, undecanoic-δ-lactone]",Enhancement/wt,[4],5.6 ± 2.0
same,Enhancement/wt,[5],3.3 ± 1.2
same,Enhancement/wt,[6],1
same,kcat/KM,[6],6.72(±2.54)×10^4 M^−1s^−1
same,times better substrate / higher catalytic efficiency,[6],10 times
same,Enhancement/wt,[7],6.3 ± 2.7
same,Enhancement/wt,[8],>73.8 ± 17.2
same,kcat,[8]; pH 8.3,(5.80 ± 0.74) × 10^1 s^−1
same,kcat/KM,[8]; pH 8.3,>5.80(±0.74) × 10^6 M^−1s^−1
same,Enhancement/wt,[9],10.1 ± 3.6
same,Enhancement/wt,[10],9.1 ± 3.5
"CCCCCCCC1CCC(=O)O1 (stereo not drawn) [Undecanoic-γ-lactone, undecanoic-γ-lactone]",Enhancement/wt,[4],5.4 ± 1.3
same,Enhancement/wt,[5],4.4 ± 1.1
same,Enhancement/wt,[6],1
same,kcat/KM,[6],2.36 (±0.38)×10^3 M^−1s^−1
same,Enhancement/wt,[7],5.3 ± 1.8
same,Enhancement/wt,[8],2.3 ± 0.5
same,Enhancement/wt,[9],1.4 ± 0.4
same,Enhancement/wt,[10],147.9 ± 53.5
CCCCCCCC(=O)CC(=O)N[C@H]1CCOC1=O [3-oxo-C10 AHL],Enhancement/wt,[4],0
same,Enhancement/wt,[5],0
same,Enhancement/wt,[6],1
same,kcat/KM,[6],3.16(±0.40)×10^4 M^−1s^−1
same,times better substrate / higher catalytic efficiency,[6],10 times
same,Enhancement/wt,[7],4.4(±1.0) × 10^−1
"COP(=O)(OC)Oc1ccc([N+](=O)[O-])cc1 [Methyl-paraoxon, methyl-paraoxon]",catalytic efficiency improvement induced by SDS,[11],5.3 times
same,kcat/KM,[11],3.16(±0.10) × 10^4 M^−1s^−1 and 1.69(±0.04) × 10^5 M^−1s^−1
same,Catalytic activity,[3],2.29(±1.09) · 10^4 M^−1s^−1
same,Catalytic activity,[12],1.27(±0.7) · 10^3 M^−1s^−1
"COP(=S)(OC)Oc1ccc([N+](=O)[O-])cc1 [Methyl-parathion, methyl-parathion]",Km,[11],168 ± 31 µM
same,kcat,[11],1.22(±0.13) × 10^−1 s^−1
same,kcat/KM,[11],728 ± 156 M⁻¹ s⁻¹
same,Catalytic activity,[3],3.68(±0.5) · 10^1 M^−1s^−1
same,Catalytic activity,[12],9.09 ± 0.9 M⁻¹ s⁻¹
"Sulfolobus solfataricus SsoPox variant W263A, SEQ ID NO: 13 (Saccharolobus solfataricus P2; W263A)",Km,[2],1640 ± 170 µM
"Sulfolobus solfataricus SsoPox variant W263T, SEQ ID NO: 19 (Saccharolobus solfataricus P2; W263T)",Km,[1],1000 ± 343 µM
same,kcat,[1],0.107 ± 0.016 s⁻¹
same,kcat/Km,[1],106 ± 40 M⁻¹ s⁻¹
same,Km,[2],137 ± 19 µM
same,kcat,[2],10.4 ± 0.35 s⁻¹
same,kcat/Km,[2],75600 ± 10800 M⁻¹ s⁻¹
"CCOC(=O)CC(SP(=S)(OC)OC)C(=O)OCC (stereo not drawn) [Malathion, malathion]",Catalytic activity,[3],3.2 ± 0.7 M⁻¹ s⁻¹
same,Catalytic activity,[12],5.56 ± 1.26 M⁻¹ s⁻¹
Sulfolobus solfataricus SsoPox variant W263F (of SEQ ID NO: 3) (Saccharolobus solfataricus P2; W263F),Km,CCCCCCC1CCCC(=O)O1,135.2 ± 52.8 µM
same,kcat,CCCCCCC1CCCC(=O)O1,66.5 ± 3.2 s⁻¹
same,kcat/Km,CCCCCCC1CCCC(=O)O1,492000 ± 193000 M⁻¹ s⁻¹
same,Km,[1],288 ± 56 µM
same,kcat,[1],3.96 ± 0.18 s⁻¹
same,kcat/Km,[1],13800 ± 2800 M⁻¹ s⁻¹
same,Km,[2],146 ± 33 µM
same,kcat,[2],0.66 ± 0.03 s⁻¹
same,kcat/Km,[2],4520 ± 1040 M⁻¹ s⁻¹
"SsoPox wt: wild-type hyperthermophilic PTE of Sulfolobus solfataricus, sequence SEQ ID NO: 3 (protein, listed as Sulfolobus solfataricus) MRIPLVGKDSIESKDIGFTLIHEHLRVFSEAVRQQWPHLYNEDEEFRNAVNEVKRAMQFGVKTIVDPTVMGLGRDIRFMEKVVKATGINLVAGTGIYIYIDLPFYFLNRSIDEIADLFIHDIKEGIQGTLNKAGFVKIAADEPGITKDVEKVIRAAAIANKETKVPIITHSNAHNNTGLEQQRILTEEGVDPGKILIGHLGDTDNIDYIKKIADKGSFIGLDRYGLDLFLPVDKRNETTLRLIKDGYSDKIMISHDYCCTIDWGTAKPEYKPKLAPRWSITLIFEDTIPFLKRNGVNEEVIATIFKENPKKFFS",melting temperature,[13],104 °C
"SsoPox W263M: SEQ ID NO: 3 with substitution of tryptophan W in position 263 by methionine M (protein, listed as Sulfolobus solfataricus) MRIPLVGKDSIESKDIGFTLIHEHLRVFSEAVRQQWPHLYNEDEEFRNAVNEVKRAMQFGVKTIVDPTVMGLGRDIRFMEKVVKATGINLVAGTGIYIYIDLPFYFLNRSIDEIADLFIHDIKEGIQGTLNKAGFVKIAADEPGITKDVEKVIRAAAIANKETKVPIITHSNAHNNTGLEQQRILTEEGVDPGKILIGHLGDTDNIDYIKKIADKGSFIGLDRYGLDLFLPVDKRNETTLRLIKDGYSDKIMISHDYCCTIDMGTAKPEYKPKLAPRWSITLIFEDTIPFLKRNGVNEEVIATIFKENPKKFFS",melting temperature,[13],85.3±0.9 °C
"SsoPox W263F: SsoPox (SEQ ID NO: 3) with W263F variation (protein, listed as Sulfolobus solfataricus) MRIPLVGKDSIESKDIGFTLIHEHLRVFSEAVRQQWPHLYNEDEEFRNAVNEVKRAMQFGVKTIVDPTVMGLGRDIRFMEKVVKATGINLVAGTGIYIYIDLPFYFLNRSIDEIADLFIHDIKEGIQGTLNKAGFVKIAADEPGITKDVEKVIRAAAIANKETKVPIITHSNAHNNTGLEQQRILTEEGVDPGKILIGHLGDTDNIDYIKKIADKGSFIGLDRYGLDLFLPVDKRNETTLRLIKDGYSDKIMISHDYCCTIDFGTAKPEYKPKLAPRWSITLIFEDTIPFLKRNGVNEEVIATIFKENPKKFFS",melting temperature,[13],91.8±1.7 °C
"SsoPox W263L: SEQ ID NO: 3 with substitution of tryptophan W in position 263 by leucine L (protein, listed as Sulfolobus solfataricus) MRIPLVGKDSIESKDIGFTLIHEHLRVFSEAVRQQWPHLYNEDEEFRNAVNEVKRAMQFGVKTIVDPTVMGLGRDIRFMEKVVKATGINLVAGTGIYIYIDLPFYFLNRSIDEIADLFIHDIKEGIQGTLNKAGFVKIAADEPGITKDVEKVIRAAAIANKETKVPIITHSNAHNNTGLEQQRILTEEGVDPGKILIGHLGDTDNIDYIKKIADKGSFIGLDRYGLDLFLPVDKRNETTLRLIKDGYSDKIMISHDYCCTIDLGTAKPEYKPKLAPRWSITLIFEDTIPFLKRNGVNEEVIATIFKENPKKFFS",melting temperature,[13],92.0±2.1 °C
